T1: APBA3_1, O96018
T1 sequence (O96018 389-490, limits assumed, looked up): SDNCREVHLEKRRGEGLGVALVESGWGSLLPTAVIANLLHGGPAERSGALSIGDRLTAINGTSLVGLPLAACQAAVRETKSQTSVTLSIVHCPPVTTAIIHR

T2: DFNB31_1, Q9P202
T2 sequence (Q9P202 135-233, limits assumed, looked up): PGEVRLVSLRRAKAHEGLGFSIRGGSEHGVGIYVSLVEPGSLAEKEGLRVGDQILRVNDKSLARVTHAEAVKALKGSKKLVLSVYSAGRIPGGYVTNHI

T3: GRIP1_3, Q9Y3R0
T3 sequence (Q9Y3R0 247-346, limits assumed, looked up): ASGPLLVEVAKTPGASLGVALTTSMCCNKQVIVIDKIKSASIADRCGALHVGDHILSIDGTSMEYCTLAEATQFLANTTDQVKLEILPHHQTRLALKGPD

T4: GRIP1_5, Q9Y3R0
T4 sequence (Q9Y3R0 568-668, limits assumed, looked up): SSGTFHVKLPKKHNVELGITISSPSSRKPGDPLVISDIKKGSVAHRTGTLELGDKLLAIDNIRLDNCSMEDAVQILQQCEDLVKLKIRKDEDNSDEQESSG

T5: PDZRN3_1, Q9UPQ7
T5 sequence (Q9UPQ7 244-349, limits assumed, looked up): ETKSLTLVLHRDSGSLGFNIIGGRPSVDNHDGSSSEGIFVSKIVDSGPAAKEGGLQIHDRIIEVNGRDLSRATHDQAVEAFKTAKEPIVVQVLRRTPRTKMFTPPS

T6: RADIL, Q96JH8
T6 sequence (Q96JH8 971-1071, limits assumed, looked up): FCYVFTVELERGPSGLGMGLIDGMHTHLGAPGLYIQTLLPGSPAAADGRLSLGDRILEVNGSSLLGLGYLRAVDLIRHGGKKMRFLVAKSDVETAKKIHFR

T7: SNTB1, Q13884
T7 sequence (Q13884 107-205, limits assumed, looked up): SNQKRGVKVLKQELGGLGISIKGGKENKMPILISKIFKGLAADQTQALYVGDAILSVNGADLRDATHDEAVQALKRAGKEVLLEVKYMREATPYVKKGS

T8: TX1BP3, O14907
T8 sequence (O14907 10-122, limits assumed, looked up): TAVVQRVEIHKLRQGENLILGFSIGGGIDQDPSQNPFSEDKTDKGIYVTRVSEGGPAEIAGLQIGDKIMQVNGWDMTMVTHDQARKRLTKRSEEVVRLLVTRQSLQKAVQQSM


How the values were obtained:
Assay in all cases: holdup assay
Set-up in all cases: key: below the threshold = too weak to quantify, mostly under pKd 3.1 to 4
Settings in all cases: plain residues with an end cap or a label only (N-terminal biotin on a linker: ado-ado)
APBA3_1, O96018 = biological target: T1, APBA3_1, O96018
DFNB31_1, Q9P202 = biological target: T2, DFNB31_1, Q9P202
DLG4_3, P78352 = biological target: DLG4_3, P78352
DLG4_3, P78352, sequence (P78352 306-403): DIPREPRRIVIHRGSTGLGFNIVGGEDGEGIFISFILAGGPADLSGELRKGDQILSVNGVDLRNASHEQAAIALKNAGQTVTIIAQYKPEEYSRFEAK

DLG5_1, Q8TDM6 = biological target: DLG5_1, Q8TDM6
DLG5_1, Q8TDM6, sequence (Q8TDM6 617-713): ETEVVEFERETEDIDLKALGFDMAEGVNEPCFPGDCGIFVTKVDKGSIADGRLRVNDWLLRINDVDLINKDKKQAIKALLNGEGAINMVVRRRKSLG

FRMPD4, Q14CM0 = biological target: FRMPD4, Q14CM0
FRMPD4, Q14CM0, sequence (Q14CM0 67-160): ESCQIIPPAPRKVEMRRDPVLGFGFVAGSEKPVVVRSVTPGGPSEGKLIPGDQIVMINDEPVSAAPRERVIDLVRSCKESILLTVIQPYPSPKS

GIPC2, Q8TF65 = biological target: GIPC2, Q8TF65
GIPC2, Q8TF65, sequence (Q8TF65 112-203): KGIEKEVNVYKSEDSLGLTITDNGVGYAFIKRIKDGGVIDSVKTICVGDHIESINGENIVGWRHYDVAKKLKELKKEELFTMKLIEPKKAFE

GORASP1, Q9BQQ3 = biological target: GORASP1, Q9BQQ3
GORASP1, Q9BQQ3, sequence (Q9BQQ3 1-208): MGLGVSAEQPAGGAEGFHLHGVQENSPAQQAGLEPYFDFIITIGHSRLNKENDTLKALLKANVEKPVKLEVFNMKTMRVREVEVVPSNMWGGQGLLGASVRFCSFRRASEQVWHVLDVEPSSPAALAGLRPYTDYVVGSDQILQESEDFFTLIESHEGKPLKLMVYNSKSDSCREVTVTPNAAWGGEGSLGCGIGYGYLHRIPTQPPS

GRIP1_3, Q9Y3R0 = biological target: T3, GRIP1_3, Q9Y3R0
GRIP1_5, Q9Y3R0 = biological target: T4, GRIP1_5, Q9Y3R0
GRIP2_4, Q9C0E4 = biological target: GRIP2_4, Q9C0E4
GRIP2_4, Q9C0E4, sequence (Q9C0E4 446-548): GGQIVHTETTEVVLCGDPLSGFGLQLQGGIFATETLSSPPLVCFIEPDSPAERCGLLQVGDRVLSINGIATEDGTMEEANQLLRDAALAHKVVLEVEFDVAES

GRIP2_7, Q9C0E4 = biological target: GRIP2_7, Q9C0E4
GRIP2_7, Q9C0E4, sequence (Q9C0E4 934-1023): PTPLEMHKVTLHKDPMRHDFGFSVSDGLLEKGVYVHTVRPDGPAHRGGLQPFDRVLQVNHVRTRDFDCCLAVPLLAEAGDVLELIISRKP

IL16_4, Q14005 = biological target: IL16_4, Q14005
IL16_4, Q14005, sequence (Q14005 1229-1329): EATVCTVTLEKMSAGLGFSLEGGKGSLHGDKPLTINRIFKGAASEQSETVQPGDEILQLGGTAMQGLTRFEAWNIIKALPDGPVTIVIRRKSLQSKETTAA

Inadl_1, Q8NI35 = biological target: Inadl_1, Q8NI35
Inadl_1, Q8NI35, sequence (Q8NI35 113-229): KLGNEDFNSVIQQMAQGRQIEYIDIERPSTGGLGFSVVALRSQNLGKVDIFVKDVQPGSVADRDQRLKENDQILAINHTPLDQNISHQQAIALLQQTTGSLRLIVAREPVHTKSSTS

Inadl_6, Q8NI35 = biological target: Inadl_6, Q8NI35
Inadl_6, Q8NI35, sequence (Q8NI35 1058-1167): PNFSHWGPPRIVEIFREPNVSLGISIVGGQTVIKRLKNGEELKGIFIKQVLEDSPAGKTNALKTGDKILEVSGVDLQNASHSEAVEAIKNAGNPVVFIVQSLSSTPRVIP

LNX1_1, Q8TBB1 = biological target: LNX1_1, Q8TBB1
LNX1_1, Q8TBB1, sequence (Q8TBB1 261-371): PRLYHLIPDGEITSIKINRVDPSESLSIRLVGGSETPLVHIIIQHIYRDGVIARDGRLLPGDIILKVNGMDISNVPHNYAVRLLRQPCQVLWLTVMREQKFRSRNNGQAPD

LNX1_2, Q8TBB1 = biological target: LNX1_2, Q8TBB1
LNX1_2, Q8TBB1, sequence (Q8TBB1 371-470): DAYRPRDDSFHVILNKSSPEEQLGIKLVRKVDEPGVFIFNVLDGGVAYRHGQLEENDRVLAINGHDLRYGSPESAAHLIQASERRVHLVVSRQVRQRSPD

LNX1_3, Q8TBB1 = biological target: LNX1_3, Q8TBB1
LNX1_3, Q8TBB1, sequence (Q8TBB1 500-596): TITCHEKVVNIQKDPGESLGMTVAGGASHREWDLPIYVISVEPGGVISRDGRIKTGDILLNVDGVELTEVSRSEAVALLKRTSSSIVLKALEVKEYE

MAGI1_1, Q96QZ7 = biological target: MAGI1_1, Q96QZ7
MAGI1_1, Q96QZ7, sequence (Q96QZ7 1-106): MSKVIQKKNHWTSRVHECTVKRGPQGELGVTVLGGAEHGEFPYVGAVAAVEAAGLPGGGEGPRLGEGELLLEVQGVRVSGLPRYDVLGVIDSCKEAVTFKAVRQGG

MAGI1_2, Q96QZ7 = biological target: MAGI1_2, Q96QZ7
MAGI1_2, Q96QZ7, sequence (Q96QZ7 456-580): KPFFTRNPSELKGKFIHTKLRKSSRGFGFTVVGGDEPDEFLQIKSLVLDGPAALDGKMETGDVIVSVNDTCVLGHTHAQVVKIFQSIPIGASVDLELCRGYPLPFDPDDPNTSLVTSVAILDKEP

MAGI2_5, Q86UL8 = biological target: MAGI2_5, Q86UL8
MAGI2_5, Q86UL8, sequence (Q86UL8 915-1017): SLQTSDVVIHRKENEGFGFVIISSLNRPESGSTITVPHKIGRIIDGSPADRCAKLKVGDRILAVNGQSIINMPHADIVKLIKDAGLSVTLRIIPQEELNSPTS

MAGI2_6, Q86UL8 = biological target: MAGI2_6, Q86UL8
MAGI2_6, Q86UL8, sequence (Q86UL8 1141-1229): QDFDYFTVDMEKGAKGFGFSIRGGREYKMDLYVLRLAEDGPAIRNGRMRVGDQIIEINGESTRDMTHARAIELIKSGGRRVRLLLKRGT

PDZRN3_1, Q9UPQ7 = biological target: T5, PDZRN3_1, Q9UPQ7
PDZRN4_1, Q6ZMN7 = biological target: PDZRN4_1, Q6ZMN7
PDZRN4_1, Q6ZMN7, sequence (Q6ZMN7 213-318): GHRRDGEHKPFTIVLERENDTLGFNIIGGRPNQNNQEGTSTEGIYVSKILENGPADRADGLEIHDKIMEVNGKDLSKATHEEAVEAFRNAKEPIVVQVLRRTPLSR

PICK1, Q9NRD5 = biological target: PICK1, Q9NRD5
PICK1, Q9NRD5, sequence (Q9NRD5 17-115): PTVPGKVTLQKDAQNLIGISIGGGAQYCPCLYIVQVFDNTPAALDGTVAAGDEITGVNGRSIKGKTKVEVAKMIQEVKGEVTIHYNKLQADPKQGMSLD

RADIL, Q96JH8 = biological target: T6, RADIL, Q96JH8
SCRIB_3, Q14160 = biological target: SCRIB_3, Q14160
SCRIB_3, Q14160, sequence (Q14160 999-1103): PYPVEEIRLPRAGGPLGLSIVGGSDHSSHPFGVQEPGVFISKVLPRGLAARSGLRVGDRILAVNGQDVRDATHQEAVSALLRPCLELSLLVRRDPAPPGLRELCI

SNTB1, Q13884 = biological target: T7, SNTB1, Q13884
SNX27, Q96L92 = biological target: SNX27, Q96L92
TX1BP3, O14907 = biological target: T8, TX1BP3, O14907

Binder | pKd (APBA3_1, O96018) | pKd (DFNB31_1, Q9P202) | pKd (DLG4_3, P78352) | pKd (DLG5_1, Q8TDM6) | pKd (FRMPD4, Q14CM0) | pKd (GIPC2, Q8TF65) | pKd (GORASP1, Q9BQQ3) | pKd (GRIP1_3, Q9Y3R0) | pKd (GRIP1_5, Q9Y3R0) | pKd (GRIP2_4, Q9C0E4) | pKd (GRIP2_7, Q9C0E4) | pKd (IL16_4, Q14005) | pKd (Inadl_1, Q8NI35) | pKd (Inadl_6, Q8NI35) | pKd (LNX1_1, Q8TBB1) | pKd (LNX1_2, Q8TBB1) | pKd (LNX1_3, Q8TBB1) | pKd (MAGI1_1, Q96QZ7) | pKd (MAGI1_2, Q96QZ7) | pKd (MAGI2_5, Q86UL8) | other results
QRYPGNQTTC [CCL24, O00175] | below the threshold | below the threshold | below the threshold | below the threshold | below the threshold | below the threshold | below the threshold | below the threshold | below the threshold | below the threshold | below the threshold | below the threshold | below the threshold | below the threshold | 3.78 | 3.49 | below the threshold | below the threshold | below the threshold | below the threshold | pKd (MAGI2_6, Q86UL8): below the threshold; pKd (PDZRN3_1, Q9UPQ7): below the threshold; pKd (PDZRN4_1, Q6ZMN7): below the threshold; pKd (PICK1, Q9NRD5): below the threshold; pKd (RADIL, Q96JH8): below the threshold; pKd (SCRIB_3, Q14160): 3.64; pKd (SNTB1, Q13884): 3.6; pKd (SNX27, Q96L92): below the threshold; pKd (TX1BP3, O14907): below the threshold
PKSNSSKEYV [CLDN7, O95471] | below the threshold | below the threshold | below the threshold | below the threshold | below the threshold | below the threshold | below the threshold | below the threshold | below the threshold | below the threshold | below the threshold | below the threshold | below the threshold | below the threshold | below the threshold | below the threshold | below the threshold | below the threshold | below the threshold | below the threshold | pKd (MAGI2_6, Q86UL8): below the threshold; pKd (PDZRN3_1, Q9UPQ7): below the threshold; pKd (PDZRN4_1, Q6ZMN7): below the threshold; pKd (PICK1, Q9NRD5): below the threshold; pKd (RADIL, Q96JH8): 4.07; pKd (SCRIB_3, Q14160): below the threshold; pKd (SNTB1, Q13884): below the threshold; pKd (SNX27, Q96L92): below the threshold; pKd (TX1BP3, O14907): below the threshold
SQPLLVHDDV [KIT, P10721] | below the threshold | below the threshold | below the threshold | below the threshold | below the threshold | below the threshold | below the threshold | below the threshold | below the threshold | below the threshold | below the threshold | below the threshold | below the threshold | below the threshold | below the threshold | below the threshold | below the threshold | below the threshold | below the threshold | below the threshold | pKd (MAGI2_6, Q86UL8): below the threshold; pKd (PDZRN3_1, Q9UPQ7): below the threshold; pKd (PDZRN4_1, Q6ZMN7): below the threshold; pKd (PICK1, Q9NRD5): 4.06; pKd (RADIL, Q96JH8): below the threshold; pKd (SCRIB_3, Q14160): below the threshold; pKd (SNTB1, Q13884): below the threshold; pKd (SNX27, Q96L92): below the threshold; pKd (TX1BP3, O14907): below the threshold
KLQNPNQSVV [TYRP1, P17643] | below the threshold | 3.61 | below the threshold | below the threshold | below the threshold | 3.67 | 3.53 | below the threshold | below the threshold | below the threshold | below the threshold | below the threshold | below the threshold | below the threshold | 3.86 | below the threshold | below the threshold | below the threshold | below the threshold | 3.78 | pKd (MAGI2_6, Q86UL8): below the threshold; pKd (PDZRN3_1, Q9UPQ7): below the threshold; pKd (PDZRN4_1, Q6ZMN7): below the threshold; pKd (PICK1, Q9NRD5): 4.19; pKd (RADIL, Q96JH8): 4.05; pKd (SCRIB_3, Q14160): below the threshold; pKd (SNTB1, Q13884): 3.72; pKd (SNX27, Q96L92): 4.04; pKd (TX1BP3, O14907): below the threshold
EFKQTSSFLV [JAM1, Q9Y624] | below the threshold | below the threshold | below the threshold | below the threshold | 3.76 | below the threshold | 4.37 | below the threshold | below the threshold | below the threshold | 3.86 | below the threshold | below the threshold | below the threshold | 3.6 | 4.26 | below the threshold | 3.49 | below the threshold | below the threshold | pKd (MAGI2_6, Q86UL8): below the threshold; pKd (PDZRN3_1, Q9UPQ7): below the threshold; pKd (PDZRN4_1, Q6ZMN7): below the threshold; pKd (PICK1, Q9NRD5): 4.27; pKd (RADIL, Q96JH8): 4.62; pKd (SCRIB_3, Q14160): below the threshold; pKd (SNTB1, Q13884): below the threshold; pKd (SNX27, Q96L92): below the threshold; pKd (TX1BP3, O14907): below the threshold

Reference: article PMC9482650, “Quantitative fragmentomics allow affinity mapping of interactomes” (Nature Communications, 2022)
